Measured values published in patent US5130298A, “Stabilized compositions containing epidermal growth factor” (Ethicon, Inc., priority 1989, dated 1992).

How the values were obtained:
[1] = Stability of precipitated EGF at pH 4.6, 7 days at 46° C., with or without zinc ion, reverse phase HPLC; assay type: physicochemical; conditions: pH 4.6, precipitated, sodium acetate buffer
Description: (§1) The zinc-EGF complex must be dissociated before HPLC analysis because the complex cannot be run on the HPLC column as is. Therefore, prior to HPLC, the pH of the samples to be analyzed was adjusted to 3.0. Alternatively, EDTA (a chelating agent) may be used to reverse crystallization. Reverse phase HPLC was conducted using a Vydac C-4 column (4.6 mm×25 cm, 5μm). The flow rate was 0.8 ml/min at 26° C. using a linear gradient of 26% to 32% acetonitrile (0.1% TFA) over 26 minutes.
This experiment was designed to answer the stability of the zinc-EGF complex results from the exclusion of water by the large and insoluble complex or alternatively from the direct interaction of zinc ion with specific amino acids in the protein. A zinc-EGF solution and control were prepared as in Example 1 and the samples were adjusted to a PH of 4.6. At this pH EGF naturally precipitates out of solution since it is at its isoelectric point. Two sets of the precipitated EGF at pH 4.6 in sodium acetate buffer were incubated for 7 days at 46° C.

[2] = EGF stability with zinc ion at pH 5.5 to 6.5, aged 28 days at 46° C., reverse phase HPLC of Peaks C, D, X, Y; assay type: physicochemical
Description: Recombinantly produced human EGF (Chiron Corporation, Emeryville, Calif.) was used in the following experiments. EGF stability with zinc ion was tested at pH 5.5 to 6.5. Lyophilized EGF was reconstituted in 50 mM sodium acetate at PH 5.5. A solution of zinc chloride was then added to this EGF solution. Alternatively, a solution of zinc acetate or crystals of a zinc salt could have been added.
The samples were permitted to age over a 28 day period and then HPLC analysis was used to study the structural changes involving the formation of new species (e.g., Peaks C, X and Y) of EGF under various storage conditions and in the presence of new formulations. Reverse phase HPLC can be used for quantitative and qualitative analysis of EGF.
as §1

| Substance | % Peak C [1] [%] | % Peak X [1] [%] | % Peak Y [1] [%] | % Peak C ([2]; pH 5.5, 28 days at 46° C.) [%] | % Peak D (native EGF) ([2]; pH 5.5, 28 days at 46° C.) [%] | % Peak X ([2]; pH 5.5, 28 days at 46° C.) [%] | % Peak C ([2]; pH 6.0, 28 days at 46° C.) [%] | % Peak D (native EGF) ([2]; pH 6.0, 28 days at 46° C.) [%] | % Peak X ([2]; pH 6.0, 28 days at 46° C.) [%] | % Peak C ([2]; pH 6.5, 28 days at 46° C.) [%] | % Peak X ([2]; pH 6.5, 28 days at 46° C.) [%] | % Peak D (native EGF) [1] [%] | % Peak Y ([2]; pH 5.5, 28 days at 46° C.) [%] | % Peak Y ([2]; pH 6.0, 28 days at 46° C.) [%] | % Peak D (native EGF) ([2]; pH 6.5, 28 days at 46° C.) [%] | % Peak Y ([2]; pH 6.5, 28 days at 46° C.) [%] |
| --- | --- | --- | --- | --- | --- | --- | --- | --- | --- | --- | --- | --- | --- | --- | --- | --- |
| With Zn++: complex ion wherein zinc is coordinately bound to recombinant human EGF; precipitates at pH 4.0-7.0 | 2 | 7 | 0 | 3 | 82 | 0 | 3 | 75 | 4 | 1 | 0 |  |  |  |  |  |
| Without Zn++: Recombinantly produced human epidermal growth factor (Chiron Corporation), 53 amino acid polypeptide, without zinc; control | 0 | 26 | 27 | 3 | 30 |  | 6 | 51 |  | 6 |  | 47 | 25 | 21 | 52 | 21 |
